Assay results as given in the supplement of paper PMC6757056.
± gives the standard deviation of the averaged measurements.

B1: library; a variant is named by its letters at N, in order (parent)
chain: GCUGUCACCGGUGCUUGGUACGUUAUAUUCAGCCGGUCUGAUGAGUCUNNNNNNAGACGAAACAGC

Legend:
(6R,S)-folinic acid [1] = variants of: B1; experiment: normalized RNA/DNA level without ligand (relative to sTRSVctl = 100) (log10 (% of sTRSVctl)); HEK293T overexpressing SLC46A1; higher = less ribozyme self-cleavage, higher mRNA level; settings: without (6R,S)-folinic acid; ligand present: no
Procedure, shortened: (§1)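 HEK293T cells were transfected with library plasmids carrying ribozyme switches linked to an mCherry reporter, or an eGFP reporter in some ligand experiments, at 4 µg per well of a 6-well plate, with any ligand added 1 h beforehand. After 72 h, total RNA was extracted with EDTA, reverse-transcribed, amplified, barcoded and sequenced. RNA level was defined as RNA reads over DNA reads, normalized to a spiked-in non-cleaving sequence or to the top-ranked sequences. That value was multiplied by 100 and converted to log10, the top set was 25 sequences, and only sequences with ≥100 DNA reads were retained.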

(6R,S)-folinic acid [2] = variants of: B1; experiment: normalized RNA/DNA level with ligand (relative to sTRSVctl = 100) (log10 (% of sTRSVctl)); HEK293T overexpressing SLC46A1; ligand concentration (+) RNA-Seq: 6 mM; higher = less ribozyme self-cleavage, higher mRNA level; settings: with (6R,S)-folinic acid; ligand present: yes
Procedure, shortened: as §1

| Variant | normalized RNA/DNA level without ligand (log10) ((6R,S)-folinic acid [1]) | normalized RNA/DNA level with ligand (log10) ((6R,S)-folinic acid [2]) |
| --- | --- | --- |
| UUCAGC | 2.063 ± 0.016 | 2.048 ± 0.014 |
| UUCAGA | 1.975 ± 0.011 | 2 ± 0.021 |
| UUCAGU | 1.9849 ± 0.0019 | 2.01 ± 0.043 |
| CUCCGA | 2.06 ± 0.024 | 2.01 ± 0.071 |
| CUCCGU | 2.042 ± 0.018 | 2.06 ± 0.044 |
| GUCGCU | 2.048 ± 0.0053 | 2.002 ± 0.02 |
| GUCGCG | 1.96 ± 0.026 | 1.996 ± 0.0077 |
| CUCCUU | 2.014 ± 0.016 | 2 ± 0.027 |
| CUCCUC | 2.06 ± 0.057 | 1.99 ± 0.053 |
| CUCCUA | 2.02 ± 0.023 | 2.01 ± 0.033 |
| CUCCUG | 2.07 ± 0.016 | 2.064 ± 0.014 |
| GUCAAU | 1.975 ± 0.018 | 2.02 ± 0.045 |
| GUCAAC | 2.0058 ± 0.0019 | 2.03 ± 0.03 |
| GUCAAA | 1.994 ± 0.009 | 1.99 ± 0.037 |
| AUCGUC | 2.106 ± 0.011 | 2.06 ± 0.027 |
| AUCGUG | 1.906 ± 0.0026 | 2.01 ± 0.026 |
| AUCGUA | 1.982 ± 0.008 | 1.993 ± 0.013 |
| AUCGUU | 2.043 ± 0.0096 | 2.01 ± 0.036 |
| CUCUGA | 2.067 ± 0.012 | 2.046 ± 0.0084 |
| GUCUAG | 1.97 ± 0.028 | 2.0363 ± 0.0013 |

| Variant | normalized RNA/DNA level without ligand (log10) ((6R,S)-folinic acid [1]) | normalized RNA/DNA level with ligand (log10) ((6R,S)-folinic acid [2]) |
| --- | --- | --- |
| GUCUAC | 2.004 ± 0.0042 | 2.02 ± 0.027 |
| GUCUAA | 1.978 ± 0.0082 | 1.991 ± 0.014 |
| AUCGCG | 1.926 ± 0.013 | 2.02 ± 0.019 |
| AUCGCC | 2.041 ± 0.014 | 2 ± 0.053 |
| AUCGCA | 2.01 ± 0.024 | 2 ± 0.032 |
| AUCCUA | 1.987 ± 0.0057 | 2.01 ± 0.079 |
| AUCCUG | 1.992 ± 0.0066 | 2.02 ± 0.042 |
| AUCCUC | 2.1 ± 0.022 | 2.02 ± 0.025 |
| AUCCUU | 2.004 ± 0.01 | 2.02 ± 0.032 |
| CUCAAA | 2 ± 0.016 | 1.97 ± 0.032 |
| CUCAAC | 2.07 ± 0.029 | 2.045 ± 0.0073 |
| CUCAAG | 1.96 ± 0.024 | 2.01 ± 0.023 |
| GUAUUA | 2.005 ± 0.01 | 2 ± 0.072 |
| GUAUUG | 1.9409 ± 0.00012 | 2.003 ± 0.0063 |
| GUAUUC | 2.03 ± 0.025 | 2.021 ± 0.019 |
| AUAUCU | 2.0373 ± 0.00034 | 2.05 ± 0.04 |
| AUAUCA | 2.0081 ± 0.00069 | 2.04 ± 0.036 |
| AUAUCG | 1.962 ± 0.0099 | 2.03 ± 0.035 |
| UUCUAC | 2.03 ± 0.029 | 1.98 ± 0.061 |
| UUCUAU | 1.994 ± 0.0097 | 2.05 ± 0.04 |

| Variant | normalized RNA/DNA level without ligand (log10) ((6R,S)-folinic acid [1]) | normalized RNA/DNA level with ligand (log10) ((6R,S)-folinic acid [2]) |
| --- | --- | --- |
| GUCCCU | 2.05 ± 0.021 | 2.03 ± 0.03 |
| GUCCCA | 2.039 ± 0.0032 | 2.016 ± 0.0029 |
| GUCCCG | 2.004 ± 0.019 | 1.98 ± 0.024 |
| AUCAGA | 2.047 ± 0.0058 | 2.04 ± 0.031 |
| AUCAGG | 1.96 ± 0.023 | 2.04 ± 0.041 |
| AUCAGC | 2.065 ± 0.016 | 2.02 ± 0.031 |
| AUAUUA | 1.963 ± 0.012 | 1.996 ± 0.019 |
| AUAUUU | 2.008 ± 0.0083 | 2.02 ± 0.027 |
| AUAUAA | 1.956 ± 0.0059 | 1.96 ± 0.032 |
| AUCUAA | 2.0002 ± 0.0016 | 2.01 ± 0.042 |
| AUCUAG | 1.974 ± 0.013 | 2.021 ± 0.0074 |
| AUCUAU | 2.0163 ± 0.0016 | 2.03 ± 0.041 |
| AUCUAC | 2.013 ± 0.0088 | 2.03 ± 0.039 |
| UUCAAC | 2.026 ± 0.015 | 2.02 ± 0.046 |
| GUCACU | 2.02 ± 0.025 | 2.03 ± 0.042 |
| GUCACA | 1.991 ± 0.0044 | 1.996 ± 0.0028 |
| CUCUAA | 1.997 ± 0.017 | 2.01 ± 0.044 |
| CUCUAU | 2.012 ± 0.0028 | 2.03 ± 0.049 |
